Reference: patent US20220081485A1 (BEIJING WISDOMAB BIOTECHNOLOGY, published 2022)
Like-named read-outs stand apart in the source and are kept apart here.

T1: human IL-4R on cells (HEK-Blue IL-4/IL-13 cells, TF-1 cells, human PBMCs) (human, UniProt P24394 26-825)
T1 sequence (looked up): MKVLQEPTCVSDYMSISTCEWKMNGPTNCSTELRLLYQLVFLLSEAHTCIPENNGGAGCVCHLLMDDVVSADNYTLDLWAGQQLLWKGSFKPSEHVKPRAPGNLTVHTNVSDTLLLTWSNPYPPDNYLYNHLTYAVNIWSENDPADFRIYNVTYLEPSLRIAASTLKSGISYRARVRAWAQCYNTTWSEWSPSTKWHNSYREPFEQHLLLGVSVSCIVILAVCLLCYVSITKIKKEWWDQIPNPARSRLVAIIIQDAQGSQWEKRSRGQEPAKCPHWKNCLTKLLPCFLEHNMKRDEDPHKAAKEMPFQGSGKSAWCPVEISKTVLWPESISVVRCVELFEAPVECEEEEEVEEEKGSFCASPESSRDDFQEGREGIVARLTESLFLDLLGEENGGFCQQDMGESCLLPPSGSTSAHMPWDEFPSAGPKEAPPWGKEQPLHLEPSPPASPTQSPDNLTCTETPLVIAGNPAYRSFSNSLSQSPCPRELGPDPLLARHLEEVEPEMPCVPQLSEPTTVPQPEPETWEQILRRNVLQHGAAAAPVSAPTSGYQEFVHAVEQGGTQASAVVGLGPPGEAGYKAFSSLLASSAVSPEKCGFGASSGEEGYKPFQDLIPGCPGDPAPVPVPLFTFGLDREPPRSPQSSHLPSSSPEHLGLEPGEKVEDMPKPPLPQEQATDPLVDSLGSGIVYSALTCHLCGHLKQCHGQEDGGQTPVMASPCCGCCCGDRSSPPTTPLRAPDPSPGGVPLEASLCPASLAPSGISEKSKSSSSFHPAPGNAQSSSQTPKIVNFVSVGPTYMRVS

T2: recombinant hIL4R-his (human IL-4R extracellular domain with C-terminal His tag) (human (Homo sapiens), UniProt P24394 26-232)
T2 construct: The tag was added at the C-terminus; The protein was expressed in HEK293 cells; also called huIL4R
T2 sequence: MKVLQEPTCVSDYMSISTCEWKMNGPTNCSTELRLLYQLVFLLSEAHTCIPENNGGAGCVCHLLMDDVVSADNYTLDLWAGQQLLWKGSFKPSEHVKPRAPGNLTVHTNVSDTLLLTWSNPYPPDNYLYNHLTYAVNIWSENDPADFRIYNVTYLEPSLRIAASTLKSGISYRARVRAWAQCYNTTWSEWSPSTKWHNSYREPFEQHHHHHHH

T3: mmIL4R-mFc (Macaca mulatta IL-4R extracellular domain fused to murine IgG2a Fc) (Macaca mulatta)
T3 chain: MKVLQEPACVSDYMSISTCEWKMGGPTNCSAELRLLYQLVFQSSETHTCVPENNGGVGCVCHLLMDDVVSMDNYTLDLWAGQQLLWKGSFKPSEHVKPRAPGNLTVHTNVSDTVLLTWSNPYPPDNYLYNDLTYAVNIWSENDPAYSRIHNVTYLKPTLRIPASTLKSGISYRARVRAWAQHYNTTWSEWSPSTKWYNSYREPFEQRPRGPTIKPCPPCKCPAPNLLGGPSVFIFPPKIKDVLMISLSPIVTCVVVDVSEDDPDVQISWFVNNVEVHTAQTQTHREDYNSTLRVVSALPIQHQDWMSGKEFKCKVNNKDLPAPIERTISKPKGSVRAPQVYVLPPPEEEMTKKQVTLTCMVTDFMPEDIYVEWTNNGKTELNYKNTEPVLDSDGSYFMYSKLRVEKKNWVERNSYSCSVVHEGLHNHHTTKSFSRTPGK

T4: coated recombinant IL4R antigen (Example 3.2) (human (Homo sapiens), UniProt P24394 26-232)
T4 sequence: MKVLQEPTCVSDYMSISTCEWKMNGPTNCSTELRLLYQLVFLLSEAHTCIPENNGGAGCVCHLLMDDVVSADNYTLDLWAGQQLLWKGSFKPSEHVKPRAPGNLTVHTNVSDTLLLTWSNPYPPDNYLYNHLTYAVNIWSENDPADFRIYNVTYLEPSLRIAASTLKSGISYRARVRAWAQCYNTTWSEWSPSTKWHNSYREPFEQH


Tests used:
[1] = biological target: T5, IL4R-mFc (human IL-4R extracellular domain fused to murine IgG2a Fc) (human (Homo sapiens)); assay: blocking ELISA: antibody gradient with IL4-his at a fixed concentration on coated IL4R-mFc; bound IL4-his detected with HRP-mouse-anti-his IgG
T5 construct: also called antigen IL4R-mFc
Protocol: (§1) 96 well plates were coated with antigen IL4R-mFc (3 μg/ml, 100 μI/well) overnight at 4° C.

[2] = biological target: T1, human IL-4R on cells (HEK-Blue …); assay: cell-based or functional assay
[3] = biological target: T2, recombinant hIL4R-his (human IL-4R …); assay: SPR Biacore X100, antibody captured by anti-human Fc, IL4R-his as analyte, 25 C
Protocol: (§2) The affinity of each anti-IL4R IgG4 chimeric antibody was determined using Biacore X100. Amino coupling kits, human antibody capture kits, CM5 chips, 1× HBS-EP (pH 7.4) and all reagents used in this assay were purchased from GE Healthcare. According to the instructions in the kits, an antibody against the human Fc region was coupled to the surface of the CM5 chip using an amino coupling method, and antibody proteins were diluted to appropriate concentrations to ensure that about 100 RU of the antibodies was captured by the antibody against the human Fc. IL4R-his was set to a series of concentration gradients (100 nm, 33.3 nm, 11.1 nm, 3.7 nm, 1.23 nm) and flew through the surface of the stationary phase.

[4] = biological target: T1, human IL-4R on cells (HEK-Blue …); assay: cell-based or functional assay; remark: listed apart in the source
[5] = biological target: T1, human IL-4R on cells (HEK-Blue …); assay: cell-based or functional assay; remark: listed apart in the source
[6] = biological target: T3, mmIL4R-mFc (Macaca mulatta IL-4R …); assay: SPR Biacore X100, antibody captured, mmIL4R-mFc as analyte
Protocol: as §2
Similarly, anti-IL4R monoclonal antibodies were captured and mmIL4R-mFc was set to a series of concentration gradient (50 nm, 16.7 nm, 5.56 nm, […], 0.62 nm).

[7] = biological target: T5, IL4R-mFc (human IL-4R extracellular …); assay: blocking ELISA: antibody gradient with IL4-his at a fixed concentration on coated IL4R-mFc; bound IL4-his detected with HRP-mouse-anti-his IgG; remark: listed apart in the source
Protocol: as §1

[8] = biological target: T2, recombinant hIL4R-his (human IL-4R …); assay: SPR Biacore X100, antibody captured by anti-human Fc, IL4R-his as analyte, 25 C; remark: listed apart in the source
Protocol: as §2

[9] = biological target: T1, human IL-4R on cells (HEK-Blue …); assay: cell-based or functional assay; remark: listed apart in the source
[10] = biological target: T1, human IL-4R on cells (HEK-Blue …); assay: cell-based or functional assay; remark: listed apart in the source
[11] = biological target: T2, recombinant hIL4R-his (human IL-4R …); assay: solid phase phage display screening with hIL4R-his as antigen
[12] = biological target: T4, coated recombinant IL4R antigen …; assay: competition ELISA: phage-scFv at a fixed titer on coated recombinant IL4R, against a gradient of recombinant IL4; detected with HRP-anti-M13

| Binder | IC50 (read off the curve) [1] | Kd [3] | koff [3] | kon [3] | Kd [6] | koff [6] | kon [6] | binding result [11] | binding result [12] | other results |
| --- | --- | --- | --- | --- | --- | --- | --- | --- | --- | --- |
| L28F8-IgG4 (antibody, V domains shown, also called S1E6 light chain mutant L28F8) VH: EVQLVESGGGLVQPGGSLRLSCAVSGFTFSSYAMSWVRQAPGKGLEWVSSITGGGGGIYYADSVKGRFTISRDNSKNTVYLQMNSLRAEDTAVYYCAKDRISITIRPRYFGLDFWGQGTTVTVSS VL: DIVMTQSPLSLPVTPGEPASISCRSSQNVVYGNGYNYLDWYLQKSGQSPQLLIYLGTNVAAGVPDRFSGSGSGTDFTLKISRVEAEDVGFYYCMQSLQAPYTFGQGTKLEIKR | ~10 nM | 0.42 nM | 0.000144 s⁻¹ | 342000 M⁻¹ s⁻¹ | 6.93 nM | 0.00519 s⁻¹ | 748000 M⁻¹ s⁻¹ |  |  | IC50 values in inhibition of IL-4 (SEAP, HEK-Blue IL-4/IL-13 cells) [2]: 55 pM; IC50 values in inhibition of IL-4 (IL-4 induced proliferation of TF-1 cells, CellTiter-Glo) [4]: 0.124 nM; IC50 values in inhibition of IL-13 (SEAP, HEK-Blue IL-4/IL-13 cells) [5]: 12.1 pM |
| L28G5-IgG4 (antibody, V domains shown, also called S1E6 light chain mutant L28G5) VH: EVQLVESGGGLVQPGGSLRLSCAVSGFTFSSYAMSWVRQAPGKGLEWVSSITGGGGGIYYADSVKGRFTISRDNSKNTVYLQMNSLRAEDTAVYYCAKDRISITIRPRYFGLDFWGQGTTVTVSS VL: DIVMTQSPLSLPVTPGEPASISCRSSRNVIYGNGYNYLDWYLQKSGQSPQLLIYLGNNVAAGVPDRFSGSGSGTDFTLKISRVEAEDVGFYYCMQSLQAPYTFGQGTKLEIKR | ~8 nM | 0.465 nM | 0.000134 s⁻¹ | 289000 M⁻¹ s⁻¹ | 10.4 nM | 0.00709 s⁻¹ | 684000 M⁻¹ s⁻¹ |  |  | IC50 values in inhibition of IL-4 (SEAP, HEK-Blue IL-4/IL-13 cells) [2]: 48.4 pM; IC50 values in inhibition of IL-4 (IL-4 induced proliferation of TF-1 cells, CellTiter-Glo) [4]: 0.118 nM; IC50 values in inhibition of IL-13 (SEAP, HEK-Blue IL-4/IL-13 cells) [5]: 11.5 pM |
| S1E6-IgG4 (antibody, V domains shown, also called monoclonal antibody S1E6) VH: EVQLVESGGGLVQPGGSLRLSCAVSGFTFSSYAMSWVRQAPGKGLEWVSSITGGGGGIYYADSVKGRFTISRDNSKNTVYLQMNSLRAEDTAVYYCAKDRISITIRPRYFGLDFWGQGTTVTVSS VL: DIVMTQSPLSLPVTPGEPASISCRSSRSVLYGNGYNYLDWYLQKSGQSPQLLIYLGTNVAAGVPDRFSGSGSGTDFTLKISRVEAEDVGFYYCMQSLRTPYTFGQGTKLEIKR | ~20 nM | 2.84 nM | 0.000709 s⁻¹ | 249000 M⁻¹ s⁻¹ | 9.3 nM | 0.0049 s⁻¹ | 527000 M⁻¹ s⁻¹ |  |  | IC50 (read off the curve) [7]: ~20 nM; Kd [8]: 2.95 nM; koff [8]: 0.000923 s⁻¹; kon [8]: 312000 M⁻¹ s⁻¹ |
| L10B2-IgG4 (antibody, V domains shown, also called S1E6 light chain mutant L10B2) VH: EVQLVESGGGLVQPGGSLRLSCAVSGFTFSSYAMSWVRQAPGKGLEWVSSITGGGGGIYYADSVKGRFTISRDNSKNTVYLQMNSLRAEDTAVYYCAKDRISITIRPRYFGLDFWGQGTTVTVSS VL: DIVMTQSPLSLPVTPGEPASISCRSSHNLLYSNGYNYLDWYLQKPGQSPQLLIYLGSNRAYGVPDRFSGSGSGTDFTLKISRVEAEDVGVYHCMQALQSPYTFGQGTKVDIKR |  |  |  |  |  |  |  |  |  | IC50 (read off the curve) [7]: ~7 nM; Kd [8]: 0.443 nM; koff [8]: 0.000152 s⁻¹; kon [8]: 343000 M⁻¹ s⁻¹; IC50 values in inhibition of IL-13 (SEAP, HEK-Blue IL-4/IL-13 cells) [9]: 13.1 pM; IC50 values in inhibition of IL-4 (SEAP, HEK-Blue IL-4/IL-13 cells) [10]: 207 pM |
| S1E6 phage-scFv (scFv, also called clone S1E6; S1E6 single chain antibody) scFv: EVQLVESGGGLVQPGGSLRLSCAVSGFTFSSYAMSWVRQAPGKGLEWVSSITGGGGGIYYADSVKGRFTISRDNSKNTVYLQMNSLRAEDTAVYYCAKDRISITIRPRYFGLDFWGQGTTVTVSSGGGGSGGGGSGGGGSDIVMTQSPLSLPVTPGEPASISCRSSRSVLYGNGYNYLDWYLQKSGQSPQLLIYLGTNVAAGVPDRFSGSGSGTDFTLKISRVEAEDVGFYYCMQSLRTPYTFGQGTKLEIK |  |  |  |  |  |  |  | binds | binds |  |
| S1H9 phage-scFv (scFv, also called clone S1H9) scFv: EVQLVESGGGLVQPGGSLRLSCAASGFTFSNYSMRWVRQAPGKGLEWVSFISASGSTKYYADSVKGRFTISRDNSKNTLYLQMNSLRAEDTAVYYCARKPTAPRSSALDYWGQGTLVTVSSGGGGSGGGGSGGGGSDIQMTQSPSSLSASVGDRVTITCRASQGVNNYLNWYQQKPGKAPKLLIYGASSRASGVPSRFSGSGSGTDFTLTISSLQPEDFATYYCQQRLSVPLTFGQGTKVEIK |  |  |  |  |  |  |  | binds | binds |  |
| S2C2 phage-scFv (scFv, also called clone S2C2) scFv: QVQLQQSGPGLVKPSQTLSLTCAISGDSVSSNNDAWNWIRQSPSRGLEWLGRTYYRSKWYNDYAVSLKGRITINPDTSKNQFSLHLNSVTPEDTAVYYCAKRDSSVGVGAMDVWSQGTTVTVSSGGGGSGGGGSGGGGSVIWMTQSPSSLSASVGDRVTITCRSSQYIGKYLNWYQYKKGQVPKLLIYAASSLRSGVPSRFSGRGSATEFTLTISNLQREDFATYYCQKYNAVPLTFGQGTKLEIK |  |  |  |  |  |  |  | binds | binds |  |
